Here are results for 1 molecule from publication PMC11419001 (bioRxiv, 2024).

The target of this assay is ribosomal protein uS10 of the stalled 70S ribosome (E. coli, UniProt P0A7R5 1-103). Kind of assay: cryo-EM structure.

B1: HrpA (E. coli DExH-box RNA helicase), preparation for cryo-EM (enzyme)
chain: MTEQQKLTFTALQQRLDSLMLRDRLRFSRRLHGVKKVKNPDAQQAIFQEMAKEIDQAAGKVLLREAARPEITYPDNLPVSQKKQDILEAIRDHQVVIVAGETGSGKTTQLPKICMELGRGIKGLIGHTQPRRLAARTVANRIAEELKTEPGGCIGYKVRFSDHVSDNTMVKLMTDGILLAEIQQDRLLMQYDTIIIDEAHERSLNIDFLLGYLKELLPRRPDLKIIITSATIDPERFSRHFNNAPIIEVSGRTYPVEVRYRPIVEEADDTERDQLQAIFDAVDELSQESHGDILIFMSGEREIRDTADALNKLNLRHTEILPLYARLSNSEQNRVFQSHSGRRIVLATNVAETSLTVPGIKYVIDPGTARISRYSYRTKVQRLPIEPISQASANQRKGRCGRVSEGICIRLYSEDDFLSRPEFTDPEILRTNLASVILQMTALGLGDIAAFPFVEAPDKRNIQDGVRLLEELGAITTDEQASAYKLTPLGRQLSQLPVDPRLARMVLEAQKHGCVREAMIITSALSIQDPRERPMDKQQASDEKHRRFHDKESDFLAFVNLWNYLGEQQKALSSNAFRRLCRTDYLNYLRVREWQDIYTQLRQVVKELGIPVNSEPAEYREIHIALLTGLLSHIGMKDADKQEYTGARNARFSIFPGSGLFKKPPKWVMVAELVETSRLWGRIAARIDPEWVEPVAQHLIKRTYSEPHWERAQGAVMATEKVTVYGLPIVAARKVNYSQIDPALCRELFIRHALVEGDWQTRHAFFRENLKLRAEVEELEHKSRRRDILVDDETLFEFYDQRISHDVISARHFDSWWKKVSRETPDLLNFEKSMLIKEGAEKISKLDYPNFWHQGNLKLRLSYQFEPGADADGVTVHIPLPLLNQVEESGFEWQIPGLRRELVIALIKSLPKPVRRNFVPAPNYAEAFLGRVKPLELPLLDSLERELRRMTGVTVDREDWHWDQVPDHLKITFRVVDDKNKKLKEGRSLQDLKDALKGKVQETLSAVADDGIEQSGLHIWSFGQLPESYEQKRGNYKVKAWPALVDERDSVAIKLFDNPLEQKQAMWNGLRRLLLLNIPSPIKYLHEKLPNKAKLGLYFNPYGKVLELIDDCISCGVDKLIDANGGPVWTEEGFAALHEKVRAELNDTVVDIAKQVEQILTAVFNINKRLKGRVDMTMALGLSDIKAQMGGLVYRGFVTGNGFKRLGDTLRYLQAIEKRLEKLAVDPHRDRAQMLKVENVQQAWQQWINKLPPARREDEDVKEIRWMIEELRVSYFAQQLGTPYPISDKRILQAMEQISG
Consider B1, for which the binding result is reported as “binds”.
